From paper doi:10.1101/2023.07.16.549178

Molecular target: F-actin (UniProt P68135)
Test: cryoEM (raw images and 2D image averages); full-length myosin-5a with F-actin free in solution, flash frozen in the presence of ATP, low calcium concentration, no cargo adaptor molecules; 1 myosin molecule per 2.5 actin subunits

- percent of myosin molecules attached (from counts per um actin): < 10%
- percent of observed myosin molecules attached by both heads to one actin filament: 55%
Substance: full-length myosin-5a (from UniProt Q99104 1-1853; P0DP26 1-149) (complex)
